How the values were obtained:
HeLa Kyoto [1] = assay: solubility in G1/S (NP-40 vs SDS abundance) (log2 ratio); higher = more soluble; settings: cell cycle stage: G1/S
HeLa Kyoto [2] = assay: melting temperature (median over replicates), in situ; higher = more thermally stable
HeLa Kyoto [3] = assay: solubility change mitosis vs G1/S (difference of NP-40 vs SDS log2 ratios) (log2 ratio difference); higher = more soluble in mitosis
HeLa Kyoto [4] = assay: thermal stability score vs G1/S (z-score of summed log2 fold changes over temperatures); higher = more thermally stable than in G1/S
[5] = cell cycle stage: early G1 (4.5 h after nocodazole release)
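For melting temperature (median over replicates), in situ in this document: HeLa Kyoto cells synchronized by double thymidine or nocodazole block, proteins quantified by TMT10plex mass spectrometry, three independent biological replicates.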
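For solubility change mitosis vs G1/S (difference of NP-40 vs SDS log2 ratios) in this document: synchronized HeLa Kyoto cells (double thymidine block for G1/S, nocodazole release for mitosis), protein amounts in NP-40 versus SDS lysates quantified by mass spectrometry, three biological replicates.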
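For solubility in G1/S (NP-40 vs SDS abundance) in this document: HeLa Kyoto cells arrested at G1/S by double thymidine block, proteins quantified by TMT10plex mass spectrometry in mild NP-40 versus SDS extracts, three biological replicates.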
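For thermal stability score vs G1/S (z-score of summed log2 fold changes over temperatures) in this document: synchronized HeLa Kyoto cells, proteins quantified by TMT10plex mass spectrometry, three biological replicates, mitosis taken 0.5 h after nocodazole release, G1/S directly after double thymidine block.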

Sequence	solubility in G1/S (log2) (HeLa Kyoto [1])	melting temperature (HeLa Kyoto [2]; cell cycle stage: G1/S)	melting temperature (HeLa Kyoto [2]; cell cycle stage: mitosis)	solubility change mitosis (log2) (HeLa Kyoto [3])	thermal stability score (HeLa Kyoto [4]; [5])	thermal stability score (HeLa Kyoto [4]; cell cycle stage: mitosis)
MSRSPDAKEDPVECPLCMEPLEIDDINFFPCTCGYQICRFCWHRIRTDENGLCPACRKPYPEDPAVYKPLSQEELQRIKNEKKQKQNERKQKISENRKHLASVRVVQKNLVFVVGLSQRLADPEVLKRPEYFGKFGKIHKVVINNSTSYAGSQGPSASAYVTYIRSEDALRAIQCVNNVVVDGRTLKASLGTTKYCSYFLKNMQCPKPDCMYLHELGDEAASFTKEEMQAGKHQEYEQKLLQELYKLNPNFLQLSTGSVDKNKNKVTPLQRYDTPIDKPSDSLSIGNGDNSQQISNSDTPSPPPGLSKSNPVIPISSSNHSARSPFEGAVTESQSLFSDNFRHPNPIPSGLPPFPSSPQTSSDWPTAPEPQSLFTSETIPVSSSTDWQAAFGFGSSKQPEDDLGFDPFDVTRKALADLIEKELSVQDQPSLSPTSLQNSSSHTTTAKGPGSGFLHPAAATNANSLNSTFSVLPQRFPQFQQHRAVYNSFSFPGQAARYPWMAFPRNSIMHLNHTANPTSNSNFLDLNLPPQHNTGLGGIPVAGEEEVKVSTMPLSTSSHSLQQGQQPTSLHTTVA [CNOT4]	0.401	52.7 °C	53 °C	0.0198	1.12	0.182
MGHRFLRGLLTLLLPPPPLYTRHRMLGPESVPPPKRSRSKLMAPPRIGTHNGTFHCDEALACALLRLLPEYRDAEIVRTRDPEKLASCDIVVDVGGEYDPRRHRYDHHQRSFTETMSSLSPGKPWQTKLSSAGLIYLHFGHKLLAQLLGTSEEDSMVGTLYDKMYENFVEEVDAVDNGISQWAEGEPRYALTTTLSARVARLNPTWNHPDQDTEAGFKRAMDLVQEEFLQRLDFYQHSWLPARALVEEALAQRFQVDPSGEIVELAKGACPWKEHLYHLESGLSPPVAIFFVIYTDQAGQWRIQCVPKEPHSFQSRLPLPEPWRGLRDEALDQVSGIPGCIFVHASGFIGGHRTREGALSMARATLAQRSYLPQIS [C12ORF10]	0.418	53.8 °C	53.9 °C	-0.074	-0.294	-1.46
MSRSVLQPSQQKLAEKLTILNDRGVGMLTRLYNIKKACGDPKAKPSYLIDKNLESAVKFIVRKFPAVETRNNNQQLAQLQKEKSEILKNLALYYFTFVDVMEFKDHVCELLNTIDVCQVFFDITVNFDLTKNYLDLIITYTTLMILLSRIEERKAIIGLYNYAHEMTHGASDREYPRLGQMIVDYENPLKKMMEEFVPHSKSLSDALISLQMVYPRRNLSADQWRNAQLLSLISAPSTMLNPAQSDTMPCEYLSLDAMEKWIIFGFILCHGILNTDATALNLWKLALQSSSCLSLFRDEVFHIHKAAEDLFVNIRGYNKRINDIRECKEAAVSHAGSMHRERRKFLRSALKELATVLSDQPGLLGPKALFVFMALSFARDEIIWLLRHADNMPKKSADDFIDKHIAELIFYMEELRAHVRKYGPVMQRYYVQYLSGFDAVVLNELVQNLSVCPEDESIIMSSFVNTMTSLSVKQVEDGEVFDFRGMRLDWFRLQAYTSVSKASLGLADHRELGKMMNTIIFHTKMVDSLVEMLVETSDLSIFCFYSRAFEKMFQQCLELPSQSRYSIAFPLLCTHFMSCTHELCPEERHHIGDRSLSLCNMFLDEMAKQARNLITDICTEQCTLSDQLLPKHCAKTISQAVNKKSKKQTGKKGEPEREKPGVESMRKNRLVVTNLDKLHTALSELCFSINYVPNMVVWEHTFTPREYLTSHLEIRFTKSIVGMTMYNQATQEIAKPSELLTSVRAYMTVLQSIENYVQIDITRVFNNVLLQQTQHLDSHGEPTITSLYTNWYLETLLRQVSNGHIAYFPAMKAFVNLPTENELTFNAEEYSDISEMRSLSELLGPYGMKFLSESLMWHISSQVAELKKLVVENVDVLTQMRTSFDKPDQMAALFKRLSSVDSVLKRMTIIGVILSFRSLAQEALRDVLSYHIPFLVSSIEDFKDHIPRETDMKVAMNVYELSSAAGLPCEIDPALVVALSSQKSENISPEEEYKIACLLMVFVAVSLPTLASNVMSQYSPAIEGHCNNIHCLAKAINQIAAALFTIHKGSIEDRLKEFLALASSSLLKIGQETDKTTTRNRESVYLLLDMIVQESPFLTMDLLESCFPYVLLRNAYHAVYKQSVTSSA [NCKAP1]	-0.214	51.5 °C	51.1 °C	-0.159	-0.278	-0.186
MLYFSLFWAARPLQRCGQLVRMAIRAQHSNAAQTQTGEANRGWTGQESLSDSDPEMWELLQREKDRQCRGLELIASENFCSRAALEALGSCLNNKYSEGYPGKRYYGGAEVVDEIELLCQRRALEAFDLDPAQWGVNVQPYSGSPANLAVYTALLQPHDRIMGLDLPDGGHLTHGYMSDVKRISATSIFFESMPYKLNPKTGLIDYNQLALTARLFRPRLIIAGTSAYARLIDYARMREVCDEVKAHLLADMAHISGLVAAKVIPSPFKHADIVTTTTHKTLRGARSGLIFYRKGVKAVDPKTGREIPYTFEDRINFAVFPSLQGGPHNHAIAAVAVALKQACTPMFREYSLQVLKNARAMADALLERGYSLVSGGTDNHLVLVDLRPKGLDGARAERVLELVSITANKNTCPGDRSAITPGGLRLGAPALTSRQFREDDFRRVVDFIDEGVNIGLEVKSKTAKLQDFKSFLLKDSETSQRLANLRQRVEQFARAFPMPGFDEH [SHMT2]	0.416	56.7 °C	56.8 °C	-0.0179	0.0206	0.314
MKFAEHLSAHITPEWRKQYIQYEAFKDMLYSAQDQAPSVEVTDEDTVKRYFAKFEEKFFQTCEKELAKINTFYSEKLAEAQRRFATLQNELQSSLDAQKESTGVTTLRQRRKPVFHLSHEERVQHRNIKDLKLAFSEFYLSLILLQNYQNLNFTGFRKILKKHDKILETSRGADWRVAHVEVAPFYTCKKINQLISETEAVVTNELEDGDRQKAMKRLRVPPLGAAQPAPAWTTFRVGLFCGIFIVLNITLVLAAVFKLETDRSIWPLIRIYRGGFLLIEFLFLLGINTYGWRQAGVNHVLIFELNPRSNLSHQHLFEIAGFLGILWCLSLLACFFAPISVIPTYVYPLALYGFMVFFLINPTKTFYYKSRFWLLKLLFRVFTAPFHKVGFADFWLADQLNSLSVILMDLEYMICFYSLELKWDESKGLLPNNSEESGICHKYTYGVRAIVQCIPAWLRFIQCLRRYRDTKRAFPHLVNAGKYSTTFFMVTFAALYSTHKERGHSDTMVFFYLWIVFYIISSCYTLIWDLKMDWGLFDKNAGENTFLREEIVYPQKAYYYCAIIEDVILRFAWTIQISITSTTLLPHSGDIIATVFAPLEVFRRFVWNFFRLENEHLNNCGEFRAVRDISVAPLNADDQTLLEQMMDQDDGVRNRQKNRSWKYNQSISLRRPRLASQSKARDTKVLIEDTDDEANT [XPR1]	-0.193	52.2 °C	51.1 °C	-0.121	-0.783	-1.57
MAAAAGRSLLLLLSSRGGGGGGAGGCGALTAGCFPGLGVSRHRQQQHHRTVHQRIASWQNLGAVYCSTVVPSDDVTVVYQNGLPVISVRLPSRRERCQFTLKPISDSVGVFLRQLQEEDRGIDRVAIYSPDGVRVAASTGIDLLLLDDFKLVINDLTYHVRPPKRDLLSHENAATLNDVKTLVQQLYTTLCIEQHQLNKERELIERLEDLKEQLAPLEKVRIEISRKAEKRTTLVLWGGLAYMATQFGILARLTWWEYSWDIMEPVTYFITYGSAMAMYAYFVMTRQEYVYPEARDRQYLLFFHKGAKKSRFDLEKYNQLKDAIAQAEMDLKRLRDPLQVHLPLRQIGEKD [MCU]	0.00831	53 °C	52.9 °C	-0.0872	0.0563	-1.45
MGLQLRALLGAFGRWTLRLGPRPSCSPRMAGNAEPPPAGAACPQDRRSCSGRAGGDRVWEDGEHPAKKLKSGGDEERREKPPKRKIVLLMAYSGKGYHGMQRNVGSSQFKTIEDDLVSALVRSGCIPENHGEDMRKMSFQRCARTDKGVSAAGQVVSLKVWLIDDILEKINSHLPSHIRILGLKRVTGGFNSKNRCDARTYCYLLPTFAFAHKDRDVQDETYRLSAETLQQVNRLLACYKGTHNFHNFTSQKGPQDPSACRYILEMYCEEPFVREGLEFAVIRVKGQSFMMHQIRKMVGLVVAIVKGYAPESVLERSWGTEKVDVPKAPGLGLVLERVHFEKYNQRFGNDGLHEPLDWAQEEGKVAAFKEEHIYPTIIGTERDERSMAQWLSTLPIHNFSATALTAGGTGAKVPSPLEGSEGDGDTD [PUS1]	0.281	46.8 °C	48.7 °C	-0.119	1.9	6.23
MSERKVLNKYYPPDFDPSKIPKLKLPKDRQYVVRLMAPFNMRCKTCGEYIYKGKKFNARKETVQNEVYLGLPIFRFYIKCTRCLAEITFKTDPENTDYTMEHGATRNFQAEKLLEEEEKRVQKEREDEELNNPMKVLENRTKDSKLEMEVLENLQELKDLNQRQAHVDFEAMLRQHRLSEEERRRQQQEEDEQETAALLEEARKRRLLEDSDSEDEAAPSPLQPALRPNPTAILDEAPKPKRKVEVWEQSVGSLGSRPPLSRLVVVKKAKADPDCSNGQPQAAPTPGAPQNRKEANPTPLTPGASSLSQLGAYLDSDDSNGSN [CCDC94]	0.299	51.6 °C	52.3 °C	-0.0138	0.296	0.409
MAASASAAAGEEDWVLPSEVEVLESIYLDELQVIKGNGRTSPWEIYITLHPATAEDQDSQYVCFTLVLQVPAEYPHEVPQISIRNPRGLSDEQIHTILQVLGHVAKAGLGTAMLYELIEKGKEILTDNNIPHGQCVICLYGFQEKEAFTKTPCYHYFHCHCLARYIQHMEQELKAQGQEQEQERQHATTKQKAVGVQCPVCREPLVYDLASLKAAPEPQQPMELYQPSAESLRQQEERKRLYQRQQERGGIIDLEAERNRYFISLQQPPAPAEPESAVDVSKGSQPPSTLAAELSTSPAVQSTLPPPLPVATQHICEKIPGTRSNQQRLGETQKAMLDPPKPSRGPWRQPERRHPKGGECHAPKGTRDTQELPPPEGPLKEPMDLKPEPHSQGVEGPPQEKGPGSWQGPPPRRTRDCVRWERSKGRTPGSSYPRLPRGQGAYRPGTRRESLGLESKDGS [RNF25]	0.537	52.7 °C	52.7 °C	0.00785	-0.22	-0.474
MELQPPEASIAVVSIPRQLPGSHSEAGVQGLSAGDDSELGSHCVAQTGLELLASGDPLPSASQNAEMIETGSDCVTQAGLQLLASSDPPALASKNAEVTGTMSQDTEVDMKEVELNELEPEKQPMNAASGAAMSLAGAEKNGLVKIKVAEDEAEAAAAAKFTGLSKEELLKVAGSPGWVRTRWALLLLFWLGWLGMLAGAVVIIVRAPRCRELPAQKWWHTGALYRIGDLQAFQGHGAGNLAGLKGRLDYLSSLKVKGLVLGPIHKNQKDDVAQTDLLQIDPNFGSKEDFDSLLQSAKKKSIRVILDLTPNYRGENSWFSTQVDTVATKVKDALEFWLQAGVDGFQVRDIENLKDASSFLAEWQNITKGFSEDRLLIAGTNSSDLQQILSLLESNKDLLLTSSYLSDSGSTGEHTKSLVTQYLNATGNRWCSWSLSQARLLTSFLPAQLLRLYQLMLFTLPGTPVFSYGDEIGLDAAALPGQPMEAPVMLWDESSFPDIPGAVSANMTVKGQSEDPGSLLSLFRRLSDQRSKERSLLHGDFHAFSAGPGLFSYIRHWDQNERFLVVLNFGDVGLSAGLQASDLPASASLPAKADLLLSTQPGREEGSPLELERLKLEPHEGLLLRFPYAA [SLC3A2]	0.345	59.8 °C	60.5 °C	-0.0187	-2.05	-1.32
MAATASAGAGGIDGKPRTSPKSVKFLFGGLAGMGATVFVQPLDLVKNRMQLSGEGAKTREYKTSFHALTSILKAEGLRGIYTGLSAGLLRQATYTTTRLGIYTVLFERLTGADGTPPGFLLKAVIGMTAGATGAFVGTPAEVALIRMTADGRLPADQRRGYKNVFNALIRITREEGVLTLWRGCIPTMARAVVVNAAQLASYSQSKQFLLDSGYFSDNILCHFCASMISGLVTTAASMPVDIAKTRIQNMRMIDGKPEYKNGLDVLFKVVRYEGFFSLWKGFTPYYARLGPHTVLTFIFLEQMNKAYKRLFLSG [SLC25A11]	-0.0956	59.1 °C	59.8 °C	-0.187	-1.46	-2.54

— the supplement of paper PMC5998384
